Laboratory results taken from US20180318437A1 (Bayer, published 2018).

T1: TPP-5521, recombinant antigen IL3Ra aa20-305 (IL3R3alpha/CD123) (murine (as printed under 'Origin' in …, UniProt P26951 20-305 (human entry)))
T1 construct: Bought protein; also called IL3Ra protein; extracellular domain of IL3Ra
T1 sequence: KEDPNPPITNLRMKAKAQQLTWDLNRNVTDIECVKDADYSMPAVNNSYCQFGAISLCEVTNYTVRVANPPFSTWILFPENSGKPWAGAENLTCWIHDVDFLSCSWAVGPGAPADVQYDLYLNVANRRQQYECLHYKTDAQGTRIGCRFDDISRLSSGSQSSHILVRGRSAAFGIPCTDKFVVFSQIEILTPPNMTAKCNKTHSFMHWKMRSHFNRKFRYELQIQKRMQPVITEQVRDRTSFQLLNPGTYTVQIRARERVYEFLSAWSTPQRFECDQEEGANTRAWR

T2: IL-3Ralpha, CD123, on CD123-positive human cancer cell lines (human, UniProt P26951 20-378)
T2 construct: Target of the flow cytometry and internalisation assays; The cell line of each value is named under assay
T2 sequence: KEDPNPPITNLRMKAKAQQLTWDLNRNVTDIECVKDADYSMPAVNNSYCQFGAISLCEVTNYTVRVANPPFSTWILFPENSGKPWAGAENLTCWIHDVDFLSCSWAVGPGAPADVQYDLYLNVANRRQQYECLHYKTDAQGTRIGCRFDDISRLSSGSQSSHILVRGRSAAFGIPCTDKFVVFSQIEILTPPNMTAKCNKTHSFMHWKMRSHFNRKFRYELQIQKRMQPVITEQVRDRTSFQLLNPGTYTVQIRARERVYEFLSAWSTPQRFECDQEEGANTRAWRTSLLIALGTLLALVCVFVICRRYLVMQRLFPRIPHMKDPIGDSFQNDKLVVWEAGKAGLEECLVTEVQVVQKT


How the values were obtained:
[1] = target: T1, TPP-5521, recombinant antigen IL3Ra …; experiment: SPR, Biacore T200, antibody captured by anti-human Fc, IL3Ra (TPP-5521) as analyte 1.56-200 nM, 25 C, 1:1 Langmuir fit
[2] = target: T2, IL-3Ralpha, CD123, on CD123-positive …; experiment: flow cytometry on MV-4-11 cells, titration from 10 ug/ml in 1:5 steps, anti-kappa-FITC secondary antibody; MV-4-11 cells

koff [1] [s⁻¹]	kon [1] [M⁻¹ s⁻¹]	EC50 [2] [nM]	Binder
0.00019	300000		TPP-6013 (antibody, human IgG1, kappa, V domains shown, Tested as unconjugated antibody; also called anti-CD123 AK1C; chimeric variant of 12F1) VH: QVQLQESGPGLVKPSQSLSLTCSVTDYSITSGYYWNWIRQFPGNKLEWMGYISYDGSNNYNPSLKNRISITRDTSKNQFFLKLSSVTTEDTATYYCSRGEGFYFDSWGQGTTLTVSS VL: DIMMSQSPSSLAVSVGEKFTMTCKSSQSLFFGSTQKNYLAWYQQKPGQSPKLLIYWASTRESGVPDRFTGSGSGTDFTLAISSVMPEDLAVYYCQQYYNYPWTFGGGTKLEIKR
		2.6	TPP-5969 (antibody, human IgG1, kappa, V domains shown, Humanized variant of 7G3 made by CDR grafting, human IgG1 kappa; Tested as unconjugated antibody; also called anti-CD123 AK1A; humanized variant of 7G3) VH: QVQLVQSGAEVKKPGSSVKVSCKASGGTFSDYYMKWVRQAPGQGLEWMGDIIPSNGATFYAQKFQGRVTITADESTSTAYMELSSLRSEDTAVYYCARSHLLRASWFAYWGQGTLVTVSS VL: DIVMTQSPDSLAVSLGERATINCESSQSLLNSGNQKNYLTWYQQKPGQPPKLLIYWASTRESGVPDRFSGSGSGTDFTLTISSLQAEDVAVYYCQNDYSYPYTFGQGTKLEIKR
